Results published in patent US20100150948A1, “MATERIALS AND METHODS FOR IMPROVED IMMUNOGLYCOPROTEINS” (TRUBION PHARMACEUTICALS, INC., priority 2006, published 2010).

Experiments:
[1] = tested on: CD16 (low affinity allele); test: Binding to soluble FcγR-MIg fusion on WIL2-S cells, flow cytometry; conditions: 0, 2, 5, 10, 30 or 100 μg/mL castanospermine in culture media
Method: (§1) The immunoglycoproteins produced according to Example 2 were assayed in vitro for binding to soluble Ig-fusion versions of Fcγ receptors, in which the extracellular domain of a receptor is fused to murine IgG2a Fc.
(§2) The soluble Fey receptor materials were generated by fusing the extracellular domain of Fcγ Receptors I (Genbank Acc. No. BC032634), IIa (Genbank Acc. No. NM_021642), IIb (Genbank Acc. No. BC031992), and III-V158 (high affinity allele) (Genbank Acc. No. X07934) and III-F158 (low affinity allele), respectively, to a murine IgG2a Fc with a Pro to Ser mutation at residue 238 (MIgG2aP238S). For both forms of Fcγ RIII (CD16), an HE4 leader was cloned onto CD16 amino acids 1-178 and then fused to MIgG2aP238S.
(§3) The assays were carried out as follows. […] The cells were then incubated with the desired FcγR-MIg fusion in the same diluent at a concentration of 1 μg/ml on ice for 45 minutes.
(§4) The complexes (WIL2-S cells/SMIP/FcγR-MIg) were then incubated with PE conjugated AffiniPure F(Ab')2 Goat Anti-Mouse IgG [Jackson Immunoresearch] (a mouse Fc-specific antibody with minimal cross reactivity with human Fc) at a 1:100 dilution. The cells were analyzed by one-color flow cytometry on a FACsCalibur using CellQuest software (Becton Dickinson).

CD16 = test: Binding to soluble FcγR-MIg fusion on WIL2-S cells, flow cytometry (allele not stated)
Method: as §1, §2, §3, §4
If TRU-016 supernatants from Example 2 were used in this assay instead of purified TRU-016 protein, the SMIP concentration in the supernatant was quantified by direct staining of WIL2-S cells with diluted supernatant along with a TRU-016 standard. TRU-016 was detected by staining with FITC conjugated F(Ab')2 Goat Anti-Human (gamma) [Caltag H10101] at a 1:50 dilution.

[2] = target: T1, CD37 cell surface receptor (Homo sapiens, UniProt P11049); test: Binding of TRU-016 to B and non-B lymphocytes of human PBMC, two-color flow cytometry
T1 construct: Human PBMCs are isolated over LSM density gradients; endogenous in cells; host or cells: human PBMC
T1 sequence (P11049 1-281): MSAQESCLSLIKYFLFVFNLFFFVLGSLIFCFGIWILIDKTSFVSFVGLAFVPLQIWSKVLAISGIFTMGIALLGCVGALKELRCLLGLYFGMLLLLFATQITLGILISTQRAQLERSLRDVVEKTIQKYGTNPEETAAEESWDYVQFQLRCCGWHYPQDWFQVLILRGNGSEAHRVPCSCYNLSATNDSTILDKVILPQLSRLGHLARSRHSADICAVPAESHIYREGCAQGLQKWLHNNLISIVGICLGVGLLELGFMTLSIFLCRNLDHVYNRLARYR
Method: Experiments may be performed to confirm that the binding specificity of the parent antibody to the CD37 cell surface receptor is preserved in TRU-016. Human PBMCs are isolated over LSM density gradients and incubated with unconjugated TRU-016 and PE-conjugated anti-human CD19. Cells are washed and incubated with 1:100 FITC GAH IgG (Fc specific) for 45 minutes on ice. Cells are washed and analyzed by two-color flow cytometry on a FACsCalibur instrument using Cell Quest software. Cells are gated for B lymphocytes or non-B lymphocytes by CD19 staining.

[3] = design: species or system BALB/c mice; conditions: mouse, in vivo, iv, 200 ug
Method: Female BALB/c mice were injected i.v. with 200 μg of TRU-016 test protein (TRU-016 produced by untreated CHO cells or by CHO cells treated with 200 μM DMJ, […] or 200 μM castanospermine) at time 0. Serum samples were collected (3 mice per time point) at 15 min, 2, 6, 24, 48, 72, 96, and 192 hours post injection. The serum concentration of each TRU-016 test sample was determined in a FACS-based binding assay using the CD37+ Ramos human cell line. CD37+ Ramos cells (5×10^5 cells/well) were incubated in 96 well flat bottom plates along with the serum sample to be tested. Spiked serum samples were used for the standard curves. Cells were incubated at 4° C. for an hour and washed before addition of the detection antibody. Binding of TRU-016 test protein to CD37+ Ramos cells was detected using a fluorescein-conjugated goat anti-human IgG Fcγ fragment-specific antibody. Standard curves were used to construct a binding curve as a function of antigen concentration. Briefly, standard curves consisted of various known concentrations of the TRU-016 test protein spiked into normal mouse serum diluted 1:20 in FACS buffer. The standard curves were run in duplicate on each plate. Mean fluorescence intensities (MFI) from the FACS analysis were imported into Softmax Pro software and were used to calculate serum concentrations of the TRU-016 test protein.

| Compound | CD16 binding (geometric mean fluorescence intensity) of TRU-015 purified protein produced by CHO cells cultured with the modifier [1] | CD16 binding (mean fluorescence intensity) of Protein A-purified TRU-016 (CD16; 0, 10, 25, 50, 100 or 200 μM castanospermine in culture media) | TRU-016 concentration at saturation of FITC signal on the B lymphocyte (CD19 positive gate) ([2]; CD19 positive gate) | mean fluorescence intensity (MFI) at saturation ([2]; CD19 positive gate) | staining of the non-B lymphocyte population ([2]; non-B lymphocyte gate) | CD16 binding activity of sera containing TRU-016 (CD16; mouse sera at 48, 72, 96 and 192 hours after administration of carbohydrate-modified TRU-016) | effect of carbohydrate modifier on half-life or other pharmacokinetic parameters [3] |
| --- | --- | --- | --- | --- | --- | --- | --- |
| O[C@H]1[C@H](O)[C@@H](O)CN2CC[C@H](O)[C@H]12 [castanospermine] | dose-dependent increase | dose-dependent increase | – | – | – | – | – |
| TRU-016: recombinant single chain protein (SMIP) that binds CD37; G28-1 binding domain, modified hinge, human IgG1 CH2 and CH3; SEQ ID NO: 2 | – | – | approximately 1 μg/mL | ~1000 | detectable, but very low | retained its increased CD16 binding activity | no significant effect |
